B1: bispecific FLT3xCD3 IgGsc antibody V6-V9 (bispecific antibody)
heavy: QVQLQQPGAELVKPGASLKLSCKSSGYTFTSYWMHWVRQRPGHGLEWIGEIDPSDSYKDYNQKFKDKATLTVDRSSNTAYMHLSSLTSDDSAVYYCARAITTTPFDFWGQGTTLTVSSASTKGPSVFPLAPSSKSTSGGTAALGCLVKDYFPEPVTVSWNSGALTSGVHTFPAVLQSSGLYSLSSVVTVPSSSLGTQTYICNVNHKPSNTKVDKKVEPKSCDKTHTCPPCPAPPVAGPSVFLFPPKPKDTLMISRTPEVTCVVVGVSHEDPEVKFNWYVDGVEVHNAKTKPREEQYNSTYRVVSVLTVLHQDWLNGKEYKCKVSNKQLPSPIEKTISKAKGQPREPQVYTLPPSRDELTKNQVSLTCLVKGFYPSDIAVEWESNGQPENNYKTTPPVLDSDGSFFLYSKLTVDKSRWQQGNVFSCSVMHEALHNHYTQKSLSLSPGKSGEVQLVESGGGLVQPGGSLRLSCAASGYSFTGYTMNWVRQAPGKGLEWVALINPYKGVSTYNQKFKDRFTISVDKSKNTAYLQMNSLRAEDTAVYYCARSGYYGDSDWYFDVWGQGTLVTVSSGGGGSGGGGSGGGGSDIQMTQSPSSLSASVGDRVTITCRASQDIRNYLNWYQQKPGKAPKLLIYYTSRLESGVPSRFSGSGSGTDYTLTISSLQPEDFATYYCQQGNTLPWTFGQGTKVEIK
light: DIVLTQSPATLSVTPGDSVSLSCRASQSISNNLHWYQQKSHESPRLLIKYASQSISGIPSRFSGSGSGTDFTLSINSVETEDFGVYFCQQSNTWPYTFGGGTKLEIKRTVAAPSVFIFPPSDEQLKSGTASVVCLLNNFYPREAKVQWKVDNALQSGNSQESVTEQDSKDSTYSLSSTLTLSKADYEKHKVYACEVTHQGLSSPVTKSFNRGEC
notes: Fc-attenuated IgGsc format; also called CC-2 V9
B2: mouse FLT3 (4G8) x CD3 (humanized UCHT1) bispecific IgGsc antibody V6-V6 (bispecific antibody)
heavy: QVQLQQPGAELVKPGASLKLSCKSSGYTFTSYWMHWVRQRPGHGLEWIGEIDPSDSYKDYNQKFKDKATLTVDRSSNTAYMHLSSLTSDDSAVYYCARAITTTPFDFWGQGTTLTVSSASTKGPSVFPLAPSSKSTSGGTAALGCLVKDYFPEPVTVSWNSGALTSGVHTFPAVLQSSGLYSLSSVVTVPSSSLGTQTYICNVNHKPSNTKVDKKVEPKSCDKTHTCPPCPAPPVAGPSVFLFPPKPKDTLMISRTPEVTCVVVGVSHEDPEVKFNWYVDGVEVHNAKTKPREEQYNSTYRVVSVLTVLHQDWLNGKEYKCKVSNKQLPSPIEKTISKAKGQPREPQVYTLPPSRDELTKNQVSLTCLVKGFYPSDIAVEWESNGQPENNYKTTPPVLDSDGSFFLYSKLTVDKSRWQQGNVFSCSVMHEALHNHYTQKSLSLSPGKSGDIQMTQSPSSLSASVGDRVTITCRASQDIRNYLNWYQQKPGKAPKLLIYYTSRLESGVPSRFSGSGSGTDYTLTISSLQPEDFATYYCQQGNTLPWTFGQGTKVEIKGGGGSGGGGSGGGGSEVQLVESGGGLVQPGGSLRLSCAASGYSFTGYTMNWVRQAPGKGLEWVALINPYKGVSTYNQKFKDRFTISVDKSKNTAYLQMNSLRAEDTAVYYCARSGYYGDSDWYFDVWGQGTLVTVSS
light: B1 light
notes: also called CC-2; parental 4G8 x UCHT1

Experiments:
[1] = molecular target: T1, CD3 on Jurkat cells (human, UniProt P07766 23-207); assay: flow cytometry (value under the bar; by the legend the EC50 of the binding to Jurkat cells of FIG. 6)
T1 construct: whole, on cells; also called Jurkat (CD3+); human cluster of differentiation 3 (CD3) antigen
T1 sequence (P07766 23-207): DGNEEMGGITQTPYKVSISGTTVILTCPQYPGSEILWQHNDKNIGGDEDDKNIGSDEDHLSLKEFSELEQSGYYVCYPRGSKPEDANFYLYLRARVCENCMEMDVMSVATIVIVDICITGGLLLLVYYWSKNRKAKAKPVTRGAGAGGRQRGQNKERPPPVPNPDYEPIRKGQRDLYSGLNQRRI
Protocol: (§1) In addition, antibody binding affinity was also tested using binding of the antibody to its target(s) as expressed on cells. Analyzed is the binding of CC-2 variants to Nalm16 cells expressing FLT3 (FIG. 4) or Jurkat cells expressing CD3 (FIG. 6). Variants V1 to V9 (with V6 being V6-V6) were produced after transient transfection of CHO cells using the insert sequences listed above. The antibodies were purified by protein A affinity- and size exclusion-chromatography. […] To measure antibody binding to FLT3 and CD3 NALM16 (FLT3+) and Jurkat (CD3+) cells were incubated with the respective variants for 30 min, washed, stained with a goat anti human Fcγ-specific and PE-conjugated secondary antibody (Jackson Immuno Research), washed again and analyzed by flow cytometry (FACSCalibur, BD Biosciences).

[2] = molecular target: T1, CD3 on Jurkat cells; assay: flow cytometry on Jurkat cells (CD3+), 30 min incubation, PE-conjugated goat anti-human Fc-gamma secondary antibody
Protocol: as §1

Binder | EC50 [1] [nM] | EC50 (read off the curve) [2] [nM]
B1 | 4.1 | ~5
B2 | 10.8 | ~10

Reference: US20220056141A1 (DEUTSCHES KREBSFORSCHUNGSZENTRUM STIFTUNG DES OFFENTLICHEN …, published 2022)
